Source: patent US20120039897A1

Molecular target: Aβ(1-40) peptide
Experiment: cell-based or functional assay

Chain of Aβ(1-40) peptide (peptide, as listed by the source): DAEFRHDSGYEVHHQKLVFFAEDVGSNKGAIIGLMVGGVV

inhibition of Aβ fibril formation (THT fluorescence), antibody 1.3 µM: 20%
B1: ACA (control antibody; humanized 266 antibody, U.S. Pat. No. 7,195,761 B2) (antibody, INN chains, looked up, V domains shown)
VH: EVQLVESGGGLVQPGGSLRLSCAASGFTFSRYSMSWVRQAPGKGLELVAQINSVGNSTYYPDTVKGRFTISRDNAKNTLYLQMNSLRAEDTAVYYCASGDYWGQGTLVTVSS
VL: DVVMTQSPLSLPVTLGQPASISCRSSQSLIYSDGNAYLHWFLQKPGQSPRLLIYKVSNRFSGVPDRFSGSGSGTDFTLKISRVEAEDVGVYYCSQSTHVPWTFGQGTKVEIK
